# Laboratory results taken from US7935785B2, “Selective substrates for matrix metalloproteinases” (Sanford-Burnham Medical Research Institute, priority 2001, dated 2011).
# Legend:
# [1] = biological target: T1, MMP-2 (Homo sapiens, UniProt P08253); assay: Cleavage of recombinant Eph receptor-Fc fusion proteins, SDS-PAGE; assay type: biochemical; conditions: 1.8 μM fusion protein, 280 nM MMP-2, 4 hours, 37° C.
# T1 construct: the cDNA encoding the catalytic domain of MMP-2 was generated by PCR; made in house; host or cells: HEK 293 cells
# T1 sequence (P08253 110-465 limits assumed): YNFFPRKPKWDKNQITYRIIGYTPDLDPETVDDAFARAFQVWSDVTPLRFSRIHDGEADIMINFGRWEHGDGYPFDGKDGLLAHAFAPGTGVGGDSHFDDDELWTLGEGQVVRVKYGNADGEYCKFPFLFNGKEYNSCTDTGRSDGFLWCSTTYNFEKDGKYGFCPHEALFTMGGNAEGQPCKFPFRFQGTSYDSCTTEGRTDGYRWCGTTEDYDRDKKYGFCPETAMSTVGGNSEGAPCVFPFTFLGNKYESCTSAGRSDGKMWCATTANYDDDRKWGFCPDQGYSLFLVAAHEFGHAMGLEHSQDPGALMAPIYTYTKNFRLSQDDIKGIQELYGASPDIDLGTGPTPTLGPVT
# Description: (§1) Recombinant fusion proteins between EphB1, EphB2 and the Fc domain of IgG were purchased from R&D Systems Inc. In these constructs, the extracellular domain of rat EphB1 (amino acid residues 1-538) and mouse EphB2 (amino acid residues 1-548) are fused to the Fc region of human IgG via a short polypeptide linker. The fusion proteins (1.8 μM) were incubated for 4 hours at 37° C. with 280 nM of either MMP-2 or MMP-9. Following incubation, samples were resolved by 10% SDS-PAGE, and samples were visualized by Coomassie staining. The N-terminus of the cleaved Eph B1 was determined by automated Edman degradation of protein blotted to PVDF membranes.
# (§2) The Eph B1 and Eph B2 fusion proteins were incubated with equimolar amounts (280 nM) of MMP-2 and MMP-9 for four hours. The extent of hydrolysis was gauged by SDS-PAGE (FIG. 3). […] The extent of cleavage by MMP-9 was far lower (lane 3). […] The site of hydrolysis within Eph B1 was determined by sequencing the N-terminus of one of the released fragments. […] This is one of the predicted cleavage sites in EphB1. These findings illustrate that motifs found to be selective for MMP-2 by substrate phage display, can act as selective substrates within the context of whole proteins. This experiment also illustrates that the three dimensional conformation of the putative cleavage site will also control the extent of hydrolysis.
# [2] = biological target: T2, MMP-9 (Homo sapiens, UniProt P14780); assay: as above; assay type: biochemical; conditions: 1.8 μM fusion protein, 280 nM MMP-9, 4 hours, 37° C.
# T2 construct: a recombinant form of the catalytic domain of MMP-9 expressed in HEK 293 cells; made in house; host or cells: HEK 293 cells
# T2 sequence (P14780 94-444 limits assumed): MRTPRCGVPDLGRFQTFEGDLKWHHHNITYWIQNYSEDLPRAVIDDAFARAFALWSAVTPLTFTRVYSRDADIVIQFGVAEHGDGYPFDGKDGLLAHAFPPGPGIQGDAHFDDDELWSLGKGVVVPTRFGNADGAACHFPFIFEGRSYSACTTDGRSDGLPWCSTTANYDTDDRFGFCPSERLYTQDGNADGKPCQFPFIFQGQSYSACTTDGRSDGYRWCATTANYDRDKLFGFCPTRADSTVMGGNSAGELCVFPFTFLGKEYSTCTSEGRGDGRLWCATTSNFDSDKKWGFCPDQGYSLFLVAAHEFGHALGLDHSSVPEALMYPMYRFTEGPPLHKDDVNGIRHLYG
# Description: as §1, §2
molecule,measurement,setting,value
"Eph B2 fusion protein: extracellular domain of mouse EphB2 (residues 1-548) fused to Fc region of human IgG, R&D Systems (protein, left off: small tags and cut ends; a dimerising Fc or GST, extracellular domain of mouse EphB2 (residues 1-548) fused to Fc region of human IgG, R&D Systems) VEETLMDSTTATAELGWMVHPPSGWEEVSGYDENMNTIRTYQVCNVFESSQNNWLRTKFIRRRGAHRIHVEMKFSVRDCSSIPSVPGSCKETFNLYYYEADFDLATKTFPNWMENPWVKVDTIAADESFSQVDLGGRVMKINTEVRSFGPVSRNGFYLAFQDYGGCMSLIAVRVFYRKCPRIIQNGAIFQETLSGAESTSLVAARGSCIANAEEVDVPIKLYCNGDGEWLVPIGRCMCKAGFEAVENGTVCRGCPSGTFKANQGDEACTHCPINSRTTSEGATNCVCRNGYYRADLDPLDMPCTTIPSAPQAVISSVNETSLMLEWTPPRDSGGREDLVYNIICKSCGSGRGACTRCGDNVQYAPRQLGLTEPRIYISDLLAHTQYTFEIQAVNGVTDQSPFSPQFASVNITTNQAAPSAVSIMHQVSRTVDSITLSWSQPDQPNGVILDYELQYYEKELSEYNATAIKSPTNTVTVQGLKAGAIYVFQVRARTVAGYGRYSGKMYFQTMTEAEYQTSIKEKLPLIVGSS",extent of hydrolysis by MMP-2 (SDS-PAGE),[1],Neither protease cleaved
same,extent of hydrolysis by MMP-9 (SDS-PAGE),[2],Neither protease cleaved
